# Patent US20200377595A1
# B1: GPC3/CtrlxCD3 trispecific antibody (protein, part only; not given: control arm and constant regions, not shown: another chain or arm of the molecule; a dimerising Fc or GST)
# VH 1: QVQLVESGGGLVQPGRSLRLSCAASGFTFSNAWMHWVRQAPGKGLEWVAQIKDRANSYNTYYAESVKGRFTISRDDSKNSIYLQMNSLKTEDTAVYYCRYVHYTTYAGSSFSYGVDAWGQGTTVTVSS
# VL 1: DIVMTQSPLSLPVTPGEPASISCRSSQPLVHSNRNTYLHWYQQKPGQAPRLLIYKVSNRFSGVPDRFSGSGSGTDFTLKISRVEAEDVGVYYCGQGTQVPYTFGQGTKLEIK
# VH 2: QVQLVQSGAEVKKPGASVTVSCKASGYTFTDYEMHWIRQPPGEGLEWIGAIDGPTPDTAYSEKFKGRVTLTADKSTSTAYMELSSLTSEDTAVYYCTRFYSYTYWGQGTLVTVSS
# VL 2: B1 VL 1
# Molecular target: recombinant human CD3 (human)
# Assay: SPR, Ab captured by anti-Fc, 37 C
# Sequence of recombinant human CD3 (human) (P07766 22-126, chain 1 of 2): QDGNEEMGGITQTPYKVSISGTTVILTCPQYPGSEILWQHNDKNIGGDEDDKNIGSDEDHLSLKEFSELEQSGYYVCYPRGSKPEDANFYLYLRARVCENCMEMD
# Sequence of recombinant human CD3 (human) (P04234 22-100, chain 2 of 2, further chain): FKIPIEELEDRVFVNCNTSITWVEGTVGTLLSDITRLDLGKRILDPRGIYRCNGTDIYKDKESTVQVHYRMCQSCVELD
binder,measurement,value
B1,Kd,17.8 nM
same,koff,0.00151 s⁻¹
same,kon,85000 M⁻¹ s⁻¹
